Test results published in US20210128704A1 (UNIVERSITY OF MIAMI, published 2021).

Target: T1, ITPR1 (inositol 1,4,5-trisphosphate receptor type 1) (UniProt Q14643 1-2758, limits assumed)
T1 construct: Endogenous protein of the transfected cells, tested by co-immunoprecipitation and western blot
Assay: co-immunoprecipitation with antibodies to the tag and western blot, HEK293 cells before and after forskolin
Source text: Overexpression of V5-Car10 and V5-CA10 inhibits ATP-induced free calcium release in vitro: ITPR1 contains functionally distinct domains, including the ‘modulatory’ domain responding to intracellular modulators such as calcium, calmodulin, ATP, and carbonic anhydrase-8 (Car8). ATP increases ITPR1-dependent calcium release by increasing the open probability of the channel in the presence of activating concentrations of IP3 and calcium. It is believed that Car8-mediated inhibition of ITPR1 activation and ATP-mediated calcium release requires binding to this modulatory domain. […] Co-immunoprecipitation of each protein with antibodies to V5 tag with ITPR1 and pITPR1 before and after forskolin stimulation of HEK293 cells was conducted.

T1 sequence (Q14643 whole entry): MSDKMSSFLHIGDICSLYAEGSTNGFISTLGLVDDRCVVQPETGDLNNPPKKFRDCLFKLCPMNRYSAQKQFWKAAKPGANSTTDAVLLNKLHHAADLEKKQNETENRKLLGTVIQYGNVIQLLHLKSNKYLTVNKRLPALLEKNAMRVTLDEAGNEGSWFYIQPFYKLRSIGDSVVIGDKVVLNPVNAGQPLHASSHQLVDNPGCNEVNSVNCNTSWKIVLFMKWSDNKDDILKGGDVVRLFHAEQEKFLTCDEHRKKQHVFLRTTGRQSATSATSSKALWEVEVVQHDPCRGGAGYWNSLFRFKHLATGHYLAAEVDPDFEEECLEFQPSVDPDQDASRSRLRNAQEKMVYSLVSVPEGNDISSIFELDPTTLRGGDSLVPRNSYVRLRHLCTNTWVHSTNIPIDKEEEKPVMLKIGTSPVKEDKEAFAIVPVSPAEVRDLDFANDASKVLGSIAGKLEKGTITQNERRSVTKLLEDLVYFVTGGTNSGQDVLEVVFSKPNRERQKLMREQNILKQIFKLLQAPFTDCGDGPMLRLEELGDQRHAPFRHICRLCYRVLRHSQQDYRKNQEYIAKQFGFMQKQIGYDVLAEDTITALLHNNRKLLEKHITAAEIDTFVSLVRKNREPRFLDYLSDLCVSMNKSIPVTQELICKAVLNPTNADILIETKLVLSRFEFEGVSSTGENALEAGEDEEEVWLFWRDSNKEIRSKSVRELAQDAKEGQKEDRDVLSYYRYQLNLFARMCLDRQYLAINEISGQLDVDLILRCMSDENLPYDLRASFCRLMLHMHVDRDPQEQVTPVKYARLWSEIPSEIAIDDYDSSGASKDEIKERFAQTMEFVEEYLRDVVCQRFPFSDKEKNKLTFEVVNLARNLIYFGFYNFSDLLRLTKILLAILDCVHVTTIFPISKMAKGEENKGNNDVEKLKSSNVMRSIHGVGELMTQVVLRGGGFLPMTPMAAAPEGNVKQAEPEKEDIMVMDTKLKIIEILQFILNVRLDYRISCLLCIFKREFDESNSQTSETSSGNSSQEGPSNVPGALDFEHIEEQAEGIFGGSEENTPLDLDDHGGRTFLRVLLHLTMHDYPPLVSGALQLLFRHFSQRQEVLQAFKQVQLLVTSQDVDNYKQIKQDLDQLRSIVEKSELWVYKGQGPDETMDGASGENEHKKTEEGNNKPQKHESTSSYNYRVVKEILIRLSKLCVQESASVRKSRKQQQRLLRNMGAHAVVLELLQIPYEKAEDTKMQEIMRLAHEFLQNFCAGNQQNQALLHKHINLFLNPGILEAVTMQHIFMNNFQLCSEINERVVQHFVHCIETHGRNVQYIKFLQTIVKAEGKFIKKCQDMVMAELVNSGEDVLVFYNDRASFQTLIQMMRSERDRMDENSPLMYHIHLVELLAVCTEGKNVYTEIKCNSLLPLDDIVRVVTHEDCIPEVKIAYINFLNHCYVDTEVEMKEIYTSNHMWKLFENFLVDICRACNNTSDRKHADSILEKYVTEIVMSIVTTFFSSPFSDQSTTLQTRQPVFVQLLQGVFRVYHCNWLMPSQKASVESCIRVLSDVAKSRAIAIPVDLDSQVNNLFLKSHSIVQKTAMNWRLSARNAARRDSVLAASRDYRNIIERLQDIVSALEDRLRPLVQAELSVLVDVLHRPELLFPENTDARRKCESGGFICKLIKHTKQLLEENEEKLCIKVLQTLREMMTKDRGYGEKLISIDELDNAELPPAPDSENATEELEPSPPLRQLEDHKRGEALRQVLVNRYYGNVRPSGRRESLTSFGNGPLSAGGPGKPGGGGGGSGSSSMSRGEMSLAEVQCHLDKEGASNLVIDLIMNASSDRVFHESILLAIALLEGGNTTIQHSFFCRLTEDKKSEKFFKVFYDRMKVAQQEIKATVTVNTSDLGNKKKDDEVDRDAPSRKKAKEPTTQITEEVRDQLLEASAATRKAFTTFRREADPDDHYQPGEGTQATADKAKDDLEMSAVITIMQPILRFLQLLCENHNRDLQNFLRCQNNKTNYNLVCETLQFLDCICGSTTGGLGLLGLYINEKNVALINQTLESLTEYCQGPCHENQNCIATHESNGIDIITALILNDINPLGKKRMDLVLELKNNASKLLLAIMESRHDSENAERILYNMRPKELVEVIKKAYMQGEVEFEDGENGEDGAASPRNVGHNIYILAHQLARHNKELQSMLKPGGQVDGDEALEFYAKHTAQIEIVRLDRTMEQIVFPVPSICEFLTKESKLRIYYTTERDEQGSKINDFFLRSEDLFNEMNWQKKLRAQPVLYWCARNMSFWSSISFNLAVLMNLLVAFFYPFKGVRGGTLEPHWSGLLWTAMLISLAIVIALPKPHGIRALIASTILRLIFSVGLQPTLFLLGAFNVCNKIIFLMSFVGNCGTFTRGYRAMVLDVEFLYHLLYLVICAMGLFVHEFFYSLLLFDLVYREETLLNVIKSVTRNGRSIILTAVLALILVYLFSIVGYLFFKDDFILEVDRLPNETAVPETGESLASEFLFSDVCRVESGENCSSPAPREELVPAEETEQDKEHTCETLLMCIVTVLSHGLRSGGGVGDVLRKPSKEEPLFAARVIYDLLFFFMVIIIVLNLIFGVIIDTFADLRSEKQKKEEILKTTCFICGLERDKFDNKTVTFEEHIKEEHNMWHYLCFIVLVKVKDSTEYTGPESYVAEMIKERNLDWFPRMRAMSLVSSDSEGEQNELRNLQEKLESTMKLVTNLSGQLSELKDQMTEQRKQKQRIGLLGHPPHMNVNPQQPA

binding result: no binding
B1: CA8-204 (carbonic anhydrase 8 fragment, alternative transcript product) (other, not shown: small tags and cut ends)
chain: MADLSFIEDTVAFPEKEEDEEEEEEGVEWGYEEGVEWGLVFPDANGEYQSPINLNSREARYDPSLLDVRLSPNYVVCRDCEVTNDGHTIQVILKSKSVLSGGPLPQGHEFELYEVRFHWGRENQRGSEHTVNFKAFPMEVRITNHLVKILFSE
notes: Expressed in HEK293 cells; also called CA8 fragment
